± gives the standard error. For some of these results: Variants at the floor of the assay were thinned out.
B1: glmS ribozyme (parent)
chain: AUAAAAGCGCCAGAACUACAGAAAUGUAGUUGACGAGGAGGAGGUUUAUCGAAUUUUCGGCGGAUGCCUCCAAA

How the values were obtained:
Settings in all cases: with glucosamine-6-phosphate
glucosamine-6-phosphate [1] = variants of: B1; assay: kcat; higher = faster cleavage; RNA array
Method in brief: (§1)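 Tiles of sequenced MiSeq chips were imaged over ~14 h at 37 °C. On them, barcoded ribozyme variants had been transcribed in situ by E. coli RNA polymerase and were tracked via a hybridised Cy3 probe while glucosamine-6-phosphate (40 μM to 10 mM) in HEPES/KCl/Mg(OAc)2 buffer flowed in. Per-tile medians, normalised to baseline and to non-cleaving reference variants, were fit to one- or two-exponential decays for kobs, and weighted Michaelis–Menten fits gave kcat and KM.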

glucosamine-6-phosphate [2] = variants of: B1; assay: self-cleavage kobs at 10000 uM GlcN6P; higher = faster cleavage; RNA array
Method in brief: as §1

glucosamine-6-phosphate [3] = variants of: B1; assay: KM; higher = weaker cofactor use; RNA array
Method in brief: as §1

glucosamine-6-phosphate [4] = variants of: B1; assay: self-cleavage kobs at 2500 uM GlcN6P; higher = faster cleavage; RNA array
Method in brief: as §1

glucosamine-6-phosphate [5] = variants of: B1; assay: self-cleavage kobs at 640 uM GlcN6P; higher = faster cleavage; RNA array
Method in brief: as §1

glucosamine-6-phosphate [6] = variants of: B1; assay: self-cleavage kobs at 40 uM GlcN6P; higher = faster cleavage; RNA array
Method in brief: as §1

glucosamine-6-phosphate [7] = variants of: B1; assay: self-cleavage kobs at 160 uM GlcN6P; higher = faster cleavage; RNA array
Method in brief: as §1

| Variant | kcat (glucosamine-6-phosphate [1]) [s⁻¹] | self-cleavage kobs at 10000 uM GlcN6P (glucosamine-6-phosphate [2]) [s⁻¹] | KM (glucosamine-6-phosphate [3]) [µM] | self-cleavage kobs at 2500 uM GlcN6P (glucosamine-6-phosphate [4]) [s⁻¹] | self-cleavage kobs at 640 uM GlcN6P (glucosamine-6-phosphate [5]) [s⁻¹] | self-cleavage kobs at 40 uM GlcN6P (glucosamine-6-phosphate [6]) [s⁻¹] | self-cleavage kobs at 160 uM GlcN6P (glucosamine-6-phosphate [7]) [s⁻¹] |
| --- | --- | --- | --- | --- | --- | --- | --- |
| C61A A64U C71G | 1.67e-05 ± 3.2e-06 | – | – | – | – | – | – |
| G37C G60C | < 1e-05 | < 1e-05 | – | – | – | – | – |
| G29U C58U | 0.000107 ± 1.1e-05 | 7.71e-05 ± 8.8e-06 | 3710 ± 980 | 4.57e-05 ± 9.1e-06 | – | – | – |
| U57G C70U | 7.01e-05 ± 1.4e-05 | 8.12e-05 ± 1.3e-05 | – | 4.91e-05 ± 8.8e-06 | 5.96e-05 ± 1.8e-05 | – | – |
| G60A U69G | 1.18e-05 ± 5e-06 | – | – | – | – | – | – |
| U49G U56G | 0.000717 ± 1.9e-05 | 0.000484 ± 5.8e-05 | 4760 ± 210 | 0.000254 ± 4.7e-05 | 8.38e-05 ± 1.5e-05 | – | – |
| U54C C58A | 0.000427 ± 0.0001 | 0.000361 ± 7.7e-05 | 3720 ± 1300 | 0.000153 ± 2.3e-05 | 6.93e-05 ± 1.1e-05 | – | – |
| C16U C68U | 0.0026 ± 0.0006 | 0.00235 ± 0.00021 | 1440 ± 460 | 0.00247 ± 0.00034 | 0.000649 ± 5.6e-05 | 8.07e-05 ± 5.9e-06 | 0.000263 ± 2.9e-05 |
| G13A C67A C68U C70G | < 1e-05 | – | – | – | – | < 1e-05 | – |
| A14U C71A | 0.00123 ± 0.0004 | 0.00114 ± 0.00019 | 2040 ± 970 | 0.000647 ± 8.4e-05 | 0.00027 ± 4.3e-05 | 5.26e-05 ± 9.6e-06 | 8.35e-05 ± 1.2e-05 |
| C11U C50A | < 1e-05 | < 1e-05 | – | – | – | – | < 1e-05 |
| G13C U31G | 0.000196 ± 4.5e-06 | 0.00017 ± 2.2e-05 | 1560 ± 90 | 0.000119 ± 1.8e-05 | 5.79e-05 ± 1.2e-05 | – | – |
| U49G C71G | 7.69e-05 ± 4.8e-06 | 7.21e-05 ± 9.4e-06 | 427 ± 120 | 6.83e-05 ± 1.3e-05 | 4.8e-05 ± 8.8e-06 | – | – |
| G29C G40U | 0.000193 ± 6.2e-06 | 0.000165 ± 1.5e-05 | 1880 ± 150 | 0.000106 ± 1.3e-05 | 5.1e-05 ± 8.7e-06 | – | – |
| G9C G38C C67A U69C | < 1e-05 | – | – | – | – | – | – |
| G38U A53C C70U | < 1e-05 | – | – | < 1e-05 | – | – | – |
| C50A U56G | < 1e-05 | – | – | – | – | – | – |
| C34G C61G | < 1e-05 | – | – | – | < 1e-05 | < 1e-05 | – |
| A14C | 0.0129 ± 0.0023 | 0.00971 ± 0.00024 | 3460 ± 740 | 0.00541 ± 0.00017 | 0.00185 ± 6.7e-05 | 0.000163 ± 2.7e-06 | 0.000466 ± 1.5e-05 |
